Laboratory results published in patent US11419837B2, “Modified release orally administered amino acid formulations” (APR APPLIED PHARMA RESEARCH S.A., priority 2015, dated 2022).

Assays:
[1] = In vivo bioavailability in pig: mean aggregate plasma concentrations of 14 amino acids; details: pigs, oral by gavage; for AUC 0-last / Cmax: 0.8 g of amino acid/kg body weight
Method: The following formulations were tested: • APR-04 (bkT037/72-4) • APR-07 (bkT037/73-7) • Free amino acid (bkT037/71) • Casein In Vivo Study Design: • Subjects: 8 pigs • Design: 4 formulations in crossover • Administration route and method: oral, by gavage. The product dose was administered to each animal mixed with a small amount of water (300 ml) in order to ensure fast (≤5 minutes) assumption. The total amount of the product was administered using syringes. The animals were fasted for 13.5±0.5 hours before the treatment and the access to water was suspended one hour before and one hour after the treatment. • Dose, frequency and duration of administration: The amount of product administered was based on body-weight and equaled 0.8 g of amino acid/kg body weight for each test product. The products were administered by a single administration in the morning of each day of treatment. • Wash out: 48-72 hours • Blood sampling: 0.75 h before Treatment (T), 0.5 h before T, 0.25 h before T, 0.25 h after T, 0.5 h after T, 0.75 h after T, 1 h after T, 1.25 h after T, 1.5 h after T, 2 h after T, 2.5 h after T, 3 h after T, 4 h after T, 5 h after T • Analysis: The plasma concentrations of 14 amino acids (Alanine, Arginine, Glutamine, Glycine, Histidine, Isoleucine, Leucine, Lysine, Proline, Serine, Threonine, Tryptophan, Tyrosine, Valine) were measured and analyzed. Methionine and Aspartic acid were excluded from the analysis due to stability issues. The following parameters were evaluated: Area Under the concentration/time Curve (AUC0-last), peak concentration (Cmax), time to peak concentration (Tmax) and Clast. The behavior of the two APR Formulations was compared to the formulation of Free Amino Acids and Casein. Results: […]

[2] = In vivo bioavailability in pig: mean of branched chain amino acid (BCAA) plasma concentrations; details: BCAA (RAW DATA), pigs, oral by gavage, 0.8 g of amino acid/kg body weight
Method: (§1) The following formulations were tested: • APR-04 (bkT037/72-4) • APR-07 (bkT037/73-7) • Free amino acid (bkT037/71) • Casein In Vivo Study Design: • Subjects: 8 pigs • Design: 4 formulations in crossover • Administration route and method: oral, by gavage. The product dose was administered to each animal mixed with a small amount of water (300 ml) in order to ensure fast (≤5 minutes) assumption. The total amount of the product was administered using syringes. The animals were fasted for 13.5±0.5 hours before the treatment and the access to water was suspended one hour before and one hour after the treatment. • Dose, frequency and duration of administration: The amount of product administered was based on body-weight and equaled 0.8 g of amino acid/kg body weight for each test product. The products were administered by a single administration in the morning of each day of treatment. • Wash out: 48-72 hours • Blood sampling: 0.75 h before Treatment (T), 0.5 h before T, 0.25 h before T, 0.25 h after T, 0.5 h after T, 0.75 h after T, 1 h after T, 1.25 h after T, 1.5 h after T, 2 h after T, 2.5 h after T, 3 h after T, 4 h after T, 5 h after T • Analysis: The plasma concentrations of 14 amino acids (Alanine, Arginine, Glutamine, Glycine, Histidine, Isoleucine, Leucine, Lysine, Proline, Serine, Threonine, Tryptophan, Tyrosine, Valine) were measured and analyzed. Methionine and Aspartic acid were excluded from the analysis due to stability issues. The following parameters were evaluated: Area Under the concentration/time Curve (AUC0-last), peak concentration (Cmax), time to peak concentration (Tmax) and Clast. The behavior of the two APR Formulations was compared to the formulation of Free Amino Acids and Casein. Results:
The amino acids aggregated together for analysis were valine, isoleucine and leucine. This subgroup of essential amino acids was chosen for analysis because these essential amino acids are unique among amino acids in that their first catabolic step cannot occur in the liver. As a consequence, they largely escape first-pass splanchnic metabolism (Brosnan et al).
The statistical analysis for the date reported in Table 14e (for AUC, Cmax, and Clast: one-way repeated measures ANOVA with post hoc analysis with Bonferroni adjustment; for Tmax: Friedman test followed by multiple sign test for pairwise comparison) is reported in Table 14f

[3] = In vivo bioavailability in pig: large neutral amino acid (LNAA) plasma concentrations; details: LNAA (RAW DATA), pigs, oral by gavage
Method: as §1
The amino acids aggregated together for analysis were tryptophan, threonine, valine, isoleucine, leucine, histidine. […] Phenylalanine was excluded from the analysis because it was not present in the formulations tested. This subgroup of essential amino acids was chosen for analysis because LNAA share with phenylalanine a common transport system in order to enter the brain. High plasma concentration of LNAAs may reduce the uptake into the brain(Van Spronsen et al). might thus bring clinical advantages. In particular, if the analysis on the subgroup show an increased Clast for the APR formulations versus the free amino acid formulations, it can be speculated that the patient may have a sort of “prolonged protection/tolerance” to phenylalanine.

[4] = In vivo bioavailability in pig: mean of analyzed essential amino acid plasma concentrations; details: ESSENTIAL AA (RAW DATA), pigs, oral by gavage, 0.8 g of amino acid/kg body weight
Method: as §1
The amino acids aggregated together for analysis were Arginine, Histidine, Isoleucine, Leucine, Threonine, Lysine, Tryptophan and Valine. This subgroup was chosen for analysis because these amino acids cannot be endogenously synthesized. As a result, their concentrations in plasma from sampling the jugular vein may be more representative of the intestinal adsorption of the tested formulations than the non-essential amino acids whose presence in blood could be independently generated by the organism.
The statistical analysis for the date reported in Table 14c (for AUC, Cmax, and Clast: one-way repeated measures ANOVA with post hoc analysis with Bonferroni adjustment; for Tmax: Friedman test followed by multiple sign test for pairwise comparison) is reported in Table 14d.

[5] = 14 AA (BC DATA, basal values subtracted)
[6] = 14 AA (RAW DATA, basal values not subtracted)
[7] = tryptophan, threonine, valine, isoleucine, leucine, histidine, 0.8 g of amino acid/kg

Casein
AUC 0-last [1, 5]: 258.9
Cmax [1, 5]: 147 µM
Clast ([1]; 14 AA (RAW DATA), plasma concentration at the last sampling (5h), 0.8 g of amino acid/kg): 172.9
AUC 0-last [1, 6]: 1125.6
Cmax [1, 6]: 325 µM
Clast ([2]; last sampling (5h)): 228.7
AUC 0-last ([2]; valine, isoleucine and leucine): 1365.3
Cmax ([2]; valine, isoleucine and leucine): 401 µM
Tmax ([2]; valine, isoleucine and leucine): 1.16 h
Clast ([3]; last sampling (5h), 0.8 g of amino acid/kg body weight): 143.0
AUC 0-last [3, 7]: 868.9
Cmax [3, 7]: 257 µM
Tmax [3, 7]: 1.16 h
Clast ([4]; last sampling (5h)): 153.0
AUC 0-last [4]: 969.9
Cmax [4]: 299 µM
Tmax [4]: 1.16 h
